Assay results reported in paper PMC4751278 (2016).

Target: T1, Hik2-GST (full-length Histidine kinase 2 of Synechocystis sp. PCC 6803, GST-tagged) (Synechocystis sp. (strain ATCC 27184 / …, UniProt P73276))
T1 chain: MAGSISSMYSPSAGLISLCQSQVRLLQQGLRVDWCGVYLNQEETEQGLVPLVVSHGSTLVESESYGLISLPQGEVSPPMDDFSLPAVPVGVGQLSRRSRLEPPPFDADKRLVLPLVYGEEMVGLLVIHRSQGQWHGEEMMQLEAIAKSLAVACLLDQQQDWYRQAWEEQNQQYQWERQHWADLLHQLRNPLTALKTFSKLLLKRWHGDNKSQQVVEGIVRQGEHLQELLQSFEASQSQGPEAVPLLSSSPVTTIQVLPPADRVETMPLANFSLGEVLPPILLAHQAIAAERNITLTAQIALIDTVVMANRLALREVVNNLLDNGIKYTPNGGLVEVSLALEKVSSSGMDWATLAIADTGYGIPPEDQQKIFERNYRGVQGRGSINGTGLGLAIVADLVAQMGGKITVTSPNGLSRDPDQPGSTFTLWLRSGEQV
Experiment: GST pull-down

binding result: binds
B1: Rre1_Rec-His6 (receiver domain of Response regulator 1) (protein)
chain: MAEPISLLLVDDEPGVRESVQAFLEDSGDFKVDLAANATEAWDYLQHHLPALVISDIMMPQVDGYQFLQKLREDARFQSLPVVFLTARGMTGDRIQGYQTGCDAFLSKPFDPDELEAIVRNLL
